# Assay results as given in patent US20190233512A1 (SUTRO BIOPHARMA, published 2019).
# Numbering of substitutions follows the chain as printed.
# B1: SRP1848-F04 (antibody, V domains shown)
# VH: EVQLVESGGGLVQPGGSLRLSCAASGFNISNYSIHWVRQAPGKGLEWVGEIYPIDGITDYADSVKGRFTISADTSKNTAYLQMNSLRAEDTAVYYCARGSWFWRSGYGYYLDYWGQGTLVTVSS
# VL: not shown
# notes: VH/VL only; Fc-bearing IgG format with trastuzumab LC, HIS/FLAG-tagged, cell-free expressed; constant regions not tied; also called Antibody 39
# B2: SRP1848-B04 (antibody, V domains shown)
# VH: B1 VH with G26S, Y32H, I54V, S100R, W101Y, F102S, S105A, G108S
# VL: not shown
# notes: VH/VL only; Fc-bearing IgG format with trastuzumab LC, HIS/FLAG-tagged, cell-free expressed; constant regions not tied; also called Antibody 11
# B3: SRP1848-B01 (antibody, V domains shown)
# VH: B1 VH with S30R, I54V, S100F, F102S, R104P, G108S, Y110F
# VL: not shown
# notes: VH/VL only; Fc-bearing IgG format with trastuzumab LC, HIS/FLAG-tagged, cell-free expressed; constant regions not tied; also called Antibody 9
# B4: SRP1848-D09 (antibody, V domains shown)
# VH: B1 VH with S33Y, E50G, Y52S, I54N, I57Y, F102S, S105H
# VL: not shown
# notes: VH/VL only; Fc-bearing IgG format with trastuzumab LC, HIS/FLAG-tagged, cell-free expressed; constant regions not tied; also called Antibody 29
# B5: SRP1848-C10 (antibody, V domains shown)
# VH: B1 VH with S30R, N31T, S33Y, E50G, Y52S, I57Y, F102S, R104P, S105A
# VL: not shown
# notes: VH/VL only; Fc-bearing IgG format with trastuzumab LC, HIS/FLAG-tagged, cell-free expressed; constant regions not tied; also called Antibody 23
# B6: SRP1848-A07 (antibody, V domains shown)
# VH: B1 VH with S30G, N31Y, Y32H, Y52F, I54V, I57T, Q82H, S100F, F102A
# VL: not shown
# notes: VH/VL only; Fc-bearing IgG format with trastuzumab LC, HIS/FLAG-tagged, cell-free expressed; constant regions not tied; also called Antibody 5
# B7: SRP1848-C07 (antibody, V domains shown)
# VH: B1 VH with S30R, N31K, E50D, Y52F, V64M, F102S, R104P, S105A, L111Q
# VL: not shown
# notes: VH/VL only; Fc-bearing IgG format with trastuzumab LC, HIS/FLAG-tagged, cell-free expressed; constant regions not tied; also called Antibody 22
# B8: SRP1848-D04 (antibody, V domains shown)
# VH: B1 VH with N31H, I54R, R87S, S100Y
# VL: not shown
# notes: VH/VL only; Fc-bearing IgG format with trastuzumab LC, HIS/FLAG-tagged, cell-free expressed; constant regions not tied; also called Antibody 26
# B9: SRP1848-B11 (antibody, V domains shown)
# VH: B1 VH with S30G, Y32N, E50D, Y52S, I57F, F102S, S105A
# VL: not shown
# notes: VH/VL only; Fc-bearing IgG format with trastuzumab LC, HIS/FLAG-tagged, cell-free expressed; constant regions not tied; also called Antibody 17
# B10: SRP1848-B05 (antibody, V domains shown)
# VH: B1 VH with S33Y, E50G, Y52S, I57Y, V64M, N84S, R104Q
# VL: not shown
# notes: VH/VL only; Fc-bearing IgG format with trastuzumab LC, HIS/FLAG-tagged, cell-free expressed; constant regions not tied; also called Antibody 12
# B11: SRP1848-D10 (antibody, V domains shown)
# VH: B1 VH with N31R, Y32N, E50W, Y52S, I54N, I57T, T74G, S100A, F102S, L111I
# VL: not shown
# notes: VH/VL only; Fc-bearing IgG format with trastuzumab LC, HIS/FLAG-tagged, cell-free expressed; constant regions not tied; also called Antibody 30
# B12: SRP1848-D02 (antibody, V domains shown)
# VH: EVQLVESGGGLVQPGGSLRLSCAASGFNISHNYIHWVRQAPGKGLEWVGGITPQDGYTDYADSVKGRFTISADTSKNTAYLQMNRLRAEDTAVYYCARGAWSWRAGYGYYLDYWGQGTLVTVSS
# VL: not shown
# notes: VH/VL only; Fc-bearing IgG format with trastuzumab LC, HIS/FLAG-tagged, cell-free expressed; constant regions not tied; also called Antibody 24
# B13: SRP1848-C01 (antibody, V domains shown)
# VH: B12 VH with S30G, H31N, N32S, I51V, Q54N, A79T, R85S, A100S, S102F, T118A
# VL: not shown
# notes: VH/VL only; Fc-bearing IgG format with trastuzumab LC, HIS/FLAG-tagged, cell-free expressed; constant regions not tied; also called Antibody 18
# B14: SRP1848-F08 (antibody, V domains shown)
# VH: B1 VH with S25G, Y32H, L45V, I54V, Q82R, F102Y, R104Q, G108S
# VL: not shown
# notes: VH/VL only; Fc-bearing IgG format with trastuzumab LC, HIS/FLAG-tagged, cell-free expressed; constant regions not tied; also called Antibody 43
# B15: SRP1848-A04 (antibody, V domains shown)
# VH: B1 VH with S30D, N31Q, Y32S, E50V, I54V, I57T, S100A, F102S, L111I
# VL: not shown
# notes: VH/VL only; Fc-bearing IgG format with trastuzumab LC, HIS/FLAG-tagged, cell-free expressed; constant regions not tied; also called Antibody 3
# B16: SRP1848-B06 (antibody, V domains shown)
# VH: B12 VH with H31N, N32Y, Q54I, R85S, A100F, R104P, A105S, L111Q
# VL: not shown
# notes: VH/VL only; Fc-bearing IgG format with trastuzumab LC, HIS/FLAG-tagged, cell-free expressed; constant regions not tied; also called Antibody 13
# Molecular target: T1, Human folate receptor alpha (hFOLR1) (human, UniProt P15328 25-234)
# T1 construct: Stably expressed on CHO cells (CHO-hFOLR1) for flow cytometry; endogenous on FOLR1-positive KB and Igrov1 cells in the killing assay; also called human FOLR1; FolRα
# T1 sequence (P15328 25-234 limits assumed): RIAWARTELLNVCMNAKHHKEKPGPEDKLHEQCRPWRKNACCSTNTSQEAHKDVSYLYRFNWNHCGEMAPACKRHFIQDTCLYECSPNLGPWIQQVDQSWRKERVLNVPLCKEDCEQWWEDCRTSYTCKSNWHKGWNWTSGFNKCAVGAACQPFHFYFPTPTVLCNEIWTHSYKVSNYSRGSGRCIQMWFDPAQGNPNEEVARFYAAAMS
# Assay: FACS, CHO-hFOLR1 cells
# Description: CHO cells were transfected to stably express human (CHO-hFOLR1), cynomolgus (CHO-cFOLR1), or mouse (CHO-mFOLR1) target molecule FOLR1 on the cell surface. Parental CHO cells were used as a negative control to determine background binding levels. Parental CHO and stably transfected CHO-hFOLR1, CHO-cFOLR1, and CHO-mFOLR1 cells were cultured in Ham's F-12: high glucose DMEM (50:50) (Corning, Cellgro-Mediatech) supplemented with 10% heat-inactivated fetal bovine serum (Corning, Cellgro-Mediatech), 1% Penicillin/Streptomycin (Corning, Cellgro-Mediatech) and 2 mmol/L-glutamax (Life Technology).
# A mixture of fluoresecent-labeled parental CHO cells and unlabeled CHO-hFOLRlcells were prepared as follows. Parental CHO cells were washed twice in PBS and incubated in PBS containing with 1 nM CellTrace™ Oregon Green488® (Life Technologies) at 37° C. for 30 minutes. Labeled parental CHO cells were then washed 2× with Ham's F-12 media and 2× with FACS buffer (PBS with 1% bovine serum albumin). Unlabeled CHO-hFOLR1 cells were similarly washed and prepared. Labeled parental CHO and unlabeled CHO-hFOLR1 cells were combined at 1:1 ratio and seeded at 50 μL per well (200,000 cells per well) in 96 well polypropylene plates. Cells were mixed with 50 μL of test antibodies (i.e., anti-FOLR1 variants) serially diluted in FACS buffer and incubated on ice for 60 mins. Cells were washed with FACS buffer and incubated on ice for 60 mins with 100 μL FACS buffer containing 2.5 μg/mL R-Phycoerythrin-conjugated goat anti-Human IgG (Jackson ImmunoResearch Laboratories, West Grove, Pa.). Cells were washed twice with FACS buffer, fixed in 2% paraformaldehyde in PBS (Santa Cruz Biotechnology; Dallas, Tex.) for 10 mins on ice in the dark, and analyzed using the BD LSR II Flow Cytometer (BD Biosciences; San Jose, Calif.). Data were analyzed using FlowJo® software (FlowJo, LLC; Ashland, Oreg.) to determine mean fluorescence intensities. Binding constants were calculated using the statistical software, GraphPad Prism (GraphPad Software; La Jolla, Calif.) using the nonlinear regression equation, one site-specific binding with Hill slope. Secondary antibody alone was used as a control, in addition to measuring non-specific antibody binding to CHO parental cells.
row,Binder,Bmax [MFI]
1,B1,26900
2,B2,27800
3,B3,26600
4,B4,25000
5,B5,27500
6,B6,29200
7,B7,28800
8,B8,29300
9,B9,28400
10,B10,24500
11,B11,26500
12,B12,28800
13,B13,28500
14,B14,26500
15,B15,26800
16,B16,25100

# Molecular target: T2, Murine folate receptor alpha (mouse, UniProt P35846 25-232)
# T2 construct: Stably expressed on CHO cells (CHO-mFOLR1); also called mouse FOLR1; CHO-mFOLR1
# T2 sequence (P35846 25-232 limits assumed): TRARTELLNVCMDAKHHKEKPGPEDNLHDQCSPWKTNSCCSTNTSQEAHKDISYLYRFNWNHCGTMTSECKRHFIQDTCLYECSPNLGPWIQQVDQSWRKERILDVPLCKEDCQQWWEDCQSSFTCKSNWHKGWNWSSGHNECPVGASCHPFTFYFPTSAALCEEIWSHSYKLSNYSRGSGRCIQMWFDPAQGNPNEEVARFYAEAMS
# Assay: FACS, CHO-mFOLR1 cells
row,Binder,Bmax [MFI]
1,B1,2740
2,B2,2190
3,B3,3400
4,B5,2330
5,B6,9650
6,B7,3170
7,B9,1630
8,B11,1860
9,B12,916
10,B13,1370
11,B15,3890

# Molecular target: T3, Cynomolgus folate receptor alpha (cynomolgus monkey, UniProt P15328 25-234 (human entry))
# T3 construct: Stably expressed on CHO cells (CHO-cFOLR1); also called cynomolgus FOLR1; CHO-cFOLR1
# T3 sequence (P15328 other isoform, or with tags, fused parts or gaps limits assumed): as the sequence (P15328 25-234 limits assumed) above, with I2T, W4R, R37K, Q117R, A146P, H171Y counted along it
# Assay: FACS, CHO-cFOLR1 cells
row,Binder,Bmax [MFI]
1,B1,26400
2,B2,27800
3,B3,23900
4,B4,21300
5,B5,16000
6,B6,23600
7,B7,18100
8,B8,25700
9,B9,22900
10,B10,21900
11,B11,20600
12,B12,28000
13,B13,25900
14,B14,21000
15,B15,23100
16,B16,26800
